System: MS2 coat protein
Assay: apparent KD of MS2 coat protein; designed switch direction (-1 OFF switch, 1 ON switch): -1; higher = weaker reporter binding
Summary of the method: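 Transcription of designed RNA switches on Illumina chips was done by stalled E. coli RNA polymerase. SNAP-549-labelled MS2 coat protein was then titrated in doubling steps from 0.7 or 1.5 nM to 3 µM, with steps of 0.8–1.5 h at the lowest and 10–20 min at the highest concentration. The per-design median over clusters of curve-fitted normalised fluorescence is reported as apparent KD.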

[1] = input ligand: microRNA oligo, concentration not stated
[2] = Eterna round: R95, input ligand: microRNA oligo, concentration not stated
[3] = Eterna round: R95, input ligand: FMN 200 uM
[4] = Eterna round: R95, input ligand: none

Sequence | apparent KD of MS2 coat protein (input ligand: FMN 200 uM) | apparent KD of MS2 coat protein [1] | apparent KD of MS2 coat protein (input ligand: none) | apparent KD of MS2 coat protein [2] | apparent KD of MS2 coat protein [3] | apparent KD of MS2 coat protein [4]
UAAGCAAGUGAGCCGAUUCACAUGAGGAUCACCCAUGUAAGAGAGGAUAUUUGAUUGGAUCGAUUAGAGAAGGUUCUAAUGUGG [Eternabot solution 25] (Eterna round: R96, puzzle: Exclusion NG 3) | 87.2 nM | 28.9 nM | 37.2 nM | – | – | –
UUUUUGUGAGGAUAUACGUAGUAGAACAAUAGUACUACUACGUAGAAGGCACAUGAGGAUCACCCAUGUUCCUC [Fiskers Ex 4 Super stable 44 mod 14] (puzzle: Exclusion 4) | – | – | – | 45.2 nM | – | –
AAGAAACAUGAGGAUCACCCAUGUGAGGAUAUGAAAAAUAAAAUAAAAGAAAUAAUAAUCAGAAGGCACAAAGG [Mat - Mod of Hog D8] (puzzle: Exclusion 1) | – | – | – | 36.1 nM | 44.5 nM | 30.5 nM
CAGUCGAUAAGAUCAAUUAAUUAACAUGAGGAUCACCCAUGUGAGGAUAUCAGCUCGUUUAGAGCUGAGAAGGCACAACGACUG [ExNG3/17-A2] (Eterna round: R96, puzzle: Exclusion NG 3) | 305 nM | 32.4 nM | 37.9 nM | – | – | –
ACGCAACAUGAGGAUCACCCAUGUCAGGAUAUCCGGCGAAAACCCAAGAAGGGAAACCGGAGAAGGGACAAAGG [ChP 04-04-2015 #1] (puzzle: Exclusion 1) | – | – | – | 181 nM | 134 nM | 189 nM
AAUAACAGAGGAUAUACUAUUUUAUGUGUUUGUUGUUUUAAACAUGAGGAUCACCCAUGUAGAAGGCUGAUUGA [JMF 74] (puzzle: Exclusion 2) | – | – | – | 31.1 nM | – | –
AAAUCCCGAGGAUAUACAUGAGGAUCACCCAUGUAAUCAAACAGGGCAAAUUGAUCCGGUAGAAGGCGGACAAU [EX3 A.26] (Eterna round: R97, puzzle: Exclusion 3) | 26.6 nM | – | 13.5 nM | – | – | –
AACAAGCUAGGAUAUACAUGAGGAUCACCCAUGUGCGACUGAUGUCCCGUGGUUGAGGGUAGAAGGAGCGAAAG [Qucelexe] (puzzle: Exclusion 3) | – | – | – | 210 nM | 239 nM | 226 nM
AAUAACAAGCCGAUCCUCGACAUGAGGAUCACCCAUGUGCUCGUCUUGUAAAGUACUAUCACGAAAGUGAUAGUACA (Eterna round: R97, puzzle: Sensor, turn-off variant 1) | 174 nM | – | 419 nM | – | – | –
GAGACACAUGAGGAUCACCCAUGUGAGGAUAUGCGAAGGACCAAAUUAAGAAUUAAAGGCAGAAGGCACAUAAA [Exclusion 1 V4] (puzzle: Exclusion 1) | – | – | – | 35.5 nM | 36.8 nM | 29.3 nM
UCAUGUUUAGAGGAUAUGAUUACUCUAGAGUGAUCAGAAGGCUAGACAUGAGGAUCACCCAUGUCACAACAUGA [Exclusion 6 - B - 16:c] (puzzle: Exclusion 6) | – | – | – | 44.5 nM | 73.6 nM | 128 nM
GAUAAGGUAGGAUAUACGAAUAAAAAGGGUAGAAGAAGAACACAUGAGGAUCACCCAUGUAGAAGGACCAAUAG [Mat - Exclusion 2 - Mod of my Tesla design - D24] (puzzle: Exclusion 2) | – | – | – | 19.7 nM | 37.9 nM | 16.5 nM
CUUUUGUGAGGAUAUCAGUAGUAAAAGAAUAAAAUUACUACUGAGAAGGCACAUGAGGAUCACCCAUGUUCCUC [Mat - Exclusion 4 - Mod of Salish - D61] (puzzle: Exclusion 4) | – | – | – | 36.7 nM | – | –

— the supplement of paper PMC9170038
